Assay results reported in patent US20230203172A1 (SHANGHAI MABGEEK BIOTECH, published 2023).
Positions count from the first letter of the chain named.

B1: murine anti-hIL-4R alpha monoclonal antibody 29 (antibody, V domains shown)
VH: EVQLVESGGGLVKPGGSLKLSCAASGFTFSDYGMHWVRQAPEKGLEWVAYINSGSSKIYHADTVKGRFTISRDNAKNTLFLQMTSLRSEDTAMYYCARFPTVVAARYPMDYWGQGTSVTVSS
VL: DIQMTQTPSSLSASLGDRVTISCRASQDISNYLNWYQQKPDGTVKLLIYFTSRLHSGVPSRFSGGGSGTDYSLTISNLEQEDIATYFCQQGNTLPYTFGGGTKLEIK
notes: Mouse hybridoma antibody purified on ProteinG
B2: murine anti-hIL-4R alpha monoclonal antibody 81 (antibody, V domains shown)
VH: DVQLQQSGPELLKPGASVKIPCQASGYTFTDYNMDWVKQSHGKNLEWIGNINPNNGGTFYNQKFKGKATLTVDKSSSTAYMELRSLTSEDTAVYYCGRGGLRRRGFMDYWGQGTSVTVSS
VL: QIVLSQSPAILSASPGEKVTMTCRASSSVIYIHWYQQKPGSSPKPWIYAASNLASGVPARFSGSGSGTSYSLTISRVEAEDAATYYCQQWSVNPPTFGGGTKLEIK
notes: as for B1
B3: murine anti-hIL-4R alpha monoclonal antibody 55 (antibody, V domains shown)
VH: B2 VH
VL: B2 VL with A59V
notes: as for B1
B4: murine anti-hIL-4R alpha monoclonal antibody 84 (antibody, V domains shown)
VH: B2 VH with P9R, P14R
VL: B2 VL
notes: as for B1
B5: murine anti-hIL-4R alpha monoclonal antibody 88 (antibody, V domains shown)
VH: B2 VH with N50T, K63N, Y80C, E89D
VL: B2 VL
notes: as for B1
B6: murine anti-hIL-4R alpha monoclonal antibody 100 (antibody, V domains shown)
VH: B2 VH with M107L
VL: B2 VL with A50V, A59V
notes: as for B1
B7: murine anti-hIL-4R alpha monoclonal antibody 120 (antibody, V domains shown)
VH: B1 VH with N52S, S56T, K57T, H60Y, A75G, F99I, P100S, A105K, P108A
VL: B1 VL with P8A, F50Y, G65S, G91I, T93A, Y96L, G100A, I106L
notes: as for B1
B8: murine anti-hIL-4R alpha monoclonal antibody 131 (antibody, V domains shown)
VH: B1 VH with N52S, K57T, H60Y, F99I, P100S, A105K, P108A
VL: B1 VL with P8A, F50Y, G65S, Q90E, G91V, T93M, Y96L, G100A, I106L
notes: as for B1
B9: murine anti-hIL-4R alpha monoclonal antibody 136 (antibody, V domains shown)
VH: B1 VH with N52S, S56T, K57T, H60Y, A75G, F99I, P100S, A105K, P108A
VL: B1 VL with P8A, F50Y, G65S, G91I, T93A, Y96L, G100A, I106L
notes: as for B1
B10: murine anti-hIL-4R alpha monoclonal antibody 228 (antibody, V domains shown)
VH: B2 VH
VL: B2 VL
notes: as for B1
B11: murine anti-hIL-4R alpha monoclonal antibody 236 (antibody, V domains shown)
VH: EVQLQQSGPELVKPGASVKIPCKASGYTFTDYNVDWVKQSHGQSLDWIGTINPNNGGILSNQKFKGKATLTVDTSSSTAYMELRSLTSEDTAVYYCGRGGLRRRGFMDYWGQGTSVTVSS
VL: B2 VL with Q36Y, P39A, A54P, V92S
notes: as for B1
B12: humanized anti-hIL-4R alpha monoclonal antibody 29-Hu (antibody, human IgG4 S228P, kappa, V domains shown)
VH: B1 VH with K13Q, K19R, E42G, T78S, F80Y, T84N, S88A, M93V, S117L
VL: DIQMTQSPSSLSASVGDRVTITCRASQDISNYLNWYQQKPGKAPKLLIYFTSRLHSGVPSRFSGSGSGTDYTLTISSLQPEDFATYYCQQGNTLPYTFGQGTKLEIKR
notes: Humanized, human IgG4 constant region; expressed in HEK293, purified on ProteinA
B13: murine anti-hIL-4R alpha monoclonal antibody 54 (antibody, V domains shown)
VH: B11 VH with V34M, Q43K, D46E, T50D, G57N, S60F, T74K, M81V
VL: B2 VL with I30S, I32M, V92S
notes: as for B1
B14: murine anti-hIL-4R alpha monoclonal antibody 64 (antibody, V domains shown)
VH: B2 VH with D1E, L12V, P21S, Q23K, N44S, N50T, I51T, F59L, G97A, M107V
VL: B2 VL with I30N, I32L, A50T, V92S
notes: as for B1
B15: murine anti-hIL-4R alpha monoclonal antibody 57 (antibody, V domains shown)
VH: B11 VH with V34M, Q43K, D46E, T50D, G57N, S60F, T74K, M81V
VL: B2 VL with I30S, I32M, V92S
notes: as for B1
B16: murine anti-hIL-4R alpha monoclonal antibody 59 (antibody, V domains shown)
VH: EVQLVESGGGLVKPGGSLKLSCAASGFTFSDYGIHWVRQAPDKGLEWVAYIRSDSSIIHYADTVKGRFTISRDNAKNTLFLQMTSLRSEDTAMYYCTRGRDRGYFDYWGQGTTLTVSS
VL: QIVLTQSPALMSASPGEKVTMTCSASSSVSYMYWYQQKPRSSPKPWIYLTSNLASGVPARFSGSGSGTSYSLTISSMEAEDAATYYCQQWTSIPFTFGSGTKLEIK
notes: as for B1
B17: murine anti-hIL-4R alpha monoclonal antibody 75 (antibody, V domains shown)
VH: B11 VH with V34M, Q43K, D46E, T50D, G57N, S60F, T74K, M81V
VL: B2 VL with I30S, I32M, V92S
notes: as for B1
B18: murine anti-hIL-4R alpha monoclonal antibody 83 (antibody, V domains shown)
VH: EVQLQQSGPELVKPGASVKIPCKASGYTFTDYNMDWVKQSRGKSLEWIGTINPNNGDTMYNQKFKDKATLTVDKSSTTAYMELRSLTSEDTAVYYCGRGGLRRRGFMDYWGRGTSVTVSS
VL: B2 VL with A50I, S71F, A79V
notes: as for B1
B19: Dupilumab (antibody, V domains shown)
VH: EVQLVESGGGLEQPGGSLRLSCAGSGFTFRDYAMTWVRQAPGKGLEWVSSISGSGGNTYYADSVKGRFTISRDNSKNTLYLQMNSLRAEDTAVYYCAKDRLSITIRPRYYGLDVWGQGTTVTVSS
VL: DIVMTQSPLSLPVTPGEPASISCRSSQSLLYSIGYNYLDWYLQKSGQSPQLLIYLGSNRASGVPDRFSGSGSGTDFTLKISRVEAEDVGFYYCMQALQTPYTFGQGTKLEIKR
B20: humanized anti-hIL-4R alpha monoclonal antibody 228-Hu (antibody, human IgG4 S228P, kappa, V domains shown)
VH: QVQLVQSGAEVKKPGASVKVSCKASGYTFTDYNMDWVRQAPGQNLEWIGNINPNNGGTFYNQKFKGRATLTVDKSASTAYMELSSLRSEDTAVYYCARGGLRRRGFMDYWGQGTLVTVSS
VL: EIVLTQSPATLSLSPGERATLSCRASSSVIYIHWYQQKPGQSPRPWIYAASNLASGVPARFSGSGSGTDYTLTISRLEPEDFAVYYCQQWSVNPPTFGQGTKLEIKR
notes: as for B12

Tests used:
[1] = biological target: T1, human IL-4R alpha on cells (TF-1 cells; human peripheral blood mononuclear cells) (human, UniProt P24394 26-825); experiment: cell-based or functional assay
hIL-4R alpha-ECD-Fc = biological target: T2, hIL-4R alpha-ECD-Fc (human, UniProt P24394 26-232); experiment: ELISA, plate coated with 1 ug/ml hIL-4R alpha-ECD-Fc
T2 construct: range 26-232; hFc at the C-terminus of the ECD; also called hIL4R alpha-ECD-hFc; hIL-4R alpha-Fc antigen
Experimental: The titer was tested by ELISA: an ELISA plate was coated with the hIL-4R alpha ECD-Fc antigen at a concentration of 1 μg/ml, 100 μl per well, and coated overnight at 4° C. The plates were washed twice with PBST (PBS containing 0.5% Tween-20) and then pat-dried. Each well was blocked with 200 μl of coating solution containing 1% BSA, blocked at room temperature for 4 h, pat-dried, and stored in a refrigerator at −20° C. for later use. During testing, 100 μl of mouse serum at different concentrations was added to each well of the ELISA plate, with two replicate wells, for incubation at room temperature for 1.5 h. The wells were washed with PBST for 3 times and then pat-dried. Then 100 μl of rabbit anti-mouse IgG labeled with HRP diluted with PBST by 1:10000 (purchased from Sigma) was added and the plates were incubated at room temperature for 1 h. The wells were washed with PBST for 3 times and then pat-dried. Then 100 μl of chromogenic solution was added to each well (an ELISA chromogenic solution A was mixed with a chromogenic solution B at a volume ratio of 1:1 before use) for a chromogenic reaction, and then 100 μl of 2M H2SO4 stopping solution was added to each well to terminate the reaction. The OD value of each well was immediately measured at 450 nm with a microplate reader (Molecular Device).
Optimized murine anti-hIL-4R alpha monoclonal antibodies were purified by a ProteinG affinity chromatography column and quantified by BCA. The EC50 of anti-hIL-4R alpha monoclonal antibodies binding to hIL-4R alpha was tested by ELISA. The testing method is as described in Example 3. An ELISA plate was coated with 1 μg/ml of hIL-4R alpha-ECD-Fc antigen, and then murine anti-hIL-4R alpha monoclonal antibodies at different concentrations were added for testing.

[2] = biological target: T1, human IL-4R alpha on cells (TF-1 cells; …); experiment: cell-based or functional assay; remark: listed apart in the source
hIL-4R alpha-ECD-Flag = biological target: T3, hIL-4R alpha-ECD-Flag (human, UniProt P24394 26-232); experiment: SPR, Biacore T200, antibody captured on Protein-A chip, hIL-4R alpha-ECD-Flag as analyte
T3 construct: range 26-232; Analyte of the Biacore experiment
Experimental: The affinity of six purified humanized antibodies was detected by Biacore T200 (GE healthcare), with the reference antibody Dupilumab as a control. The specific experimental method was as follows: a Protein-A CMS sensor chip (GE healthcare) was used, with FC1 (Flow cell 1) as a reference channel, and FC2 (Flow cell 2) as a sample channel. Humanized antibodies or control antibody were captured in the FC2 channel, and then hIL-4R alpha-ECD-Flag at different concentrations was injected. Cycling conditions were as follows: an analyte was injected into all channels of FCs at 50 μl/min for 4 min, with a dissociation time of 20 min, and 6M guanidine hydrochloride (Sinopharm Chemical Reagent Co., Ltd.) was injected at a rate of 10 μl/min for 30 s for surface regeneration. Then, signal differences and affinity for interaction between captured antibodies and non-captured antibodies were calculated by Biacore T200 Evaluation Software Ver 1.0.

| Binder | IC50 (ng/ml), inhibition of IL-4-induced TF-1 proliferation [1] | EC50 (hIL-4R alpha-ECD-Fc) | IC50 (ng/ml), inhibition of IL-4-induced TF-1 cell proliferation [2] | Kd (hIL-4R alpha-ECD-Flag) | koff (hIL-4R alpha-ECD-Flag) | kon (hIL-4R alpha-ECD-Flag) |
| --- | --- | --- | --- | --- | --- | --- |
| B1 | 65.3 ng/mL | 0.0076 µg/mL |  |  |  |  |
| B2 | 24.6 ng/mL | 0.0096 µg/mL |  |  |  |  |
| B3 | 19 ng/mL | 0.0089 µg/mL |  |  |  |  |
| B4 | 31.3 ng/mL | 0.0122 µg/mL |  |  |  |  |
| B5 | 67.2 ng/mL | 0.0091 µg/mL |  |  |  |  |
| B6 | 53.7 ng/mL | 0.012 µg/mL |  |  |  |  |
| B7 | 59.7 ng/mL | 0.01 µg/mL |  |  |  |  |
| B8 | 47.1 ng/mL | 0.0138 µg/mL |  |  |  |  |
| B9 | 49.6 ng/mL | 0.0113 µg/mL |  |  |  |  |
| B10 | 34.2 ng/mL | 0.0131 µg/mL |  |  |  |  |
| B11 | 22.4 ng/mL | 0.0115 µg/mL |  |  |  |  |
| B12 |  |  | 156 ng/mL | 0.526 nM | 0.00021 s⁻¹ | 398000 M⁻¹ s⁻¹ |
| B13 | 57 ng/mL | 0.0099 µg/mL |  |  |  |  |
| B14 | 43.7 ng/mL | 0.0106 µg/mL |  |  |  |  |
| B15 | 23.6 ng/mL | 0.0079 µg/mL |  |  |  |  |
| B16 | 43.7 ng/mL | 0.0117 µg/mL |  |  |  |  |
| B17 | 29 ng/mL | 0.0129 µg/mL |  |  |  |  |
| B18 | 36.6 ng/mL | 0.0123 µg/mL |  |  |  |  |
| B19 |  |  |  | 0.403 nM | 0.00018 s⁻¹ | 446000 M⁻¹ s⁻¹ |
| B20 |  |  |  | 0.912 nM | 0.000658 s⁻¹ | 721000 M⁻¹ s⁻¹ |
